According to publication PMC6363164:

Biological target: Rab7-RILP complex (human) (UniProt P51149)
Assay: ITC; 20 °C; 20 mM Tris-HCl pH 7.5, 150 mM NaCl; 1 mM ORP1 ANK in the syringe, 0.1 mM Rab7 or Rab7-RILP in the cell; Rab7 Q67L with 0.5 mM GTP, Rab7 T22N with 0.5 mM GDP; independent binding model

- Kd: 5 µM
B1: human ORP1 ANK domain (residue 5-152) (domain or fragment)
chain: AEQQLLHHARNGNAEEVRQLLETMARNEVIADINCKGRSKSNLGWTPLHLACYFGHRQVVQDLLKAGAEVNVLNDMGDTPLHRAAFTGRKELVMLLLEYNADTTIVNGSGQTAKEVTHAEEIRSMLEAVERTQQRKLEELLLAAAREG
